Test results from patent US20210261685A1 (Alector, published 2021).
Changes are numbered by the printed parent chain. Each block holds one binder with its values, some of them ahead of it.

Tests used:
[1] = target: T1, murine MerTK overexpressed on CHO cells (CHO-muMerTK OE cells) (mouse, UniProt Q60805 19-994); test: flow cytometry on CHO-muMerTK OE cells, Prism fit
T1 construct: whole, on cells
T1 sequence (looked up): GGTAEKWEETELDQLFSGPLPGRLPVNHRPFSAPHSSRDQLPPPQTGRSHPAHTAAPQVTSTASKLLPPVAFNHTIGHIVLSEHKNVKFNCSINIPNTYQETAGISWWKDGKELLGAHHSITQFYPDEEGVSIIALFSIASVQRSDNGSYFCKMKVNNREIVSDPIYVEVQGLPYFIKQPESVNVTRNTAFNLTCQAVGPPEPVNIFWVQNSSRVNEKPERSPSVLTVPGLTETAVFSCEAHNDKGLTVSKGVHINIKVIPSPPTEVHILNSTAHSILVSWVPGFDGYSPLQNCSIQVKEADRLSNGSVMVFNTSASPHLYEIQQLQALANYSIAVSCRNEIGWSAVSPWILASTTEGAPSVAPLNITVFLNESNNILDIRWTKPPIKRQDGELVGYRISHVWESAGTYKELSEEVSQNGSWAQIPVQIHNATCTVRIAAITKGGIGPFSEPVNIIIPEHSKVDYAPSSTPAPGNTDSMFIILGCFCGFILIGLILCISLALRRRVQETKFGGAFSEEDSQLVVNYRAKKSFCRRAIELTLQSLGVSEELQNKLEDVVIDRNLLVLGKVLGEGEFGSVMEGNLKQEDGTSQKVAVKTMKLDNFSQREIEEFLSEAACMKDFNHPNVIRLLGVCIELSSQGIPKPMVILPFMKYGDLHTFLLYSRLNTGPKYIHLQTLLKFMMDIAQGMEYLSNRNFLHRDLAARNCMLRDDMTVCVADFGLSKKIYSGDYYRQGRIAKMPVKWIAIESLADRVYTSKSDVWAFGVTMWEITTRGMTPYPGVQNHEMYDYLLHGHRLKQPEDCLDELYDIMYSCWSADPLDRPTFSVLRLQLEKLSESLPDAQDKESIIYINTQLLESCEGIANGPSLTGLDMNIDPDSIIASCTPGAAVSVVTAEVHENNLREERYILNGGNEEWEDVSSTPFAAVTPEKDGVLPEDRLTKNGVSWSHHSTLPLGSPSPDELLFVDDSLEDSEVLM
Protocol: (§1) To determine whether recombinant anti-human MerTK antibodies of the present disclosure bind to human MerTK endogenously expressed on SK-MEL-5 cells and to CHO cells overexpressing mouse MerTK (CHO-muMerTK OE cells), the following experiments were performed. SK-MEL-5 cells and CHO-muMerTK OE cells were plated at 40,000 cells/well. Anti-MerTK antibodies were titrated to a final concentration range of between 66.6 nM to 4 pM and then added to the cells. After 30 min on ice, cells were washed and then stained with APC-conjugated mouse anti-human Kappa antibody (Southern Biotech Cat #9230-11, Birmingham, Ala.) and a viability die (Life Technologies) in the presence of Fc block solution on ice for 30 minutes, and then washed twice with cold FACS buffer (2% FBS in PBS). Cells were fixed with 4% paraformaldehyde in PBS. Stained cells were acquired on a BD FACS Canto II cytometer and the mean fluorescence intensity (MFI) was calculated with FlowJo software and K value was calculated with Prism software. […] A lower Kd value reflects higher binding of antibody to cells.

[2] = target: T2, human MerTK endogenously expressed on cells (SK-MEL-5 cells; human macrophages) (human, UniProt Q12866 21-999); test: flow cytometry on SK-MEL-5 cells (endogenous human MerTK), APC anti-human kappa detection, MFI
T2 construct: also called MerTK on SK-MEL-5
T2 sequence: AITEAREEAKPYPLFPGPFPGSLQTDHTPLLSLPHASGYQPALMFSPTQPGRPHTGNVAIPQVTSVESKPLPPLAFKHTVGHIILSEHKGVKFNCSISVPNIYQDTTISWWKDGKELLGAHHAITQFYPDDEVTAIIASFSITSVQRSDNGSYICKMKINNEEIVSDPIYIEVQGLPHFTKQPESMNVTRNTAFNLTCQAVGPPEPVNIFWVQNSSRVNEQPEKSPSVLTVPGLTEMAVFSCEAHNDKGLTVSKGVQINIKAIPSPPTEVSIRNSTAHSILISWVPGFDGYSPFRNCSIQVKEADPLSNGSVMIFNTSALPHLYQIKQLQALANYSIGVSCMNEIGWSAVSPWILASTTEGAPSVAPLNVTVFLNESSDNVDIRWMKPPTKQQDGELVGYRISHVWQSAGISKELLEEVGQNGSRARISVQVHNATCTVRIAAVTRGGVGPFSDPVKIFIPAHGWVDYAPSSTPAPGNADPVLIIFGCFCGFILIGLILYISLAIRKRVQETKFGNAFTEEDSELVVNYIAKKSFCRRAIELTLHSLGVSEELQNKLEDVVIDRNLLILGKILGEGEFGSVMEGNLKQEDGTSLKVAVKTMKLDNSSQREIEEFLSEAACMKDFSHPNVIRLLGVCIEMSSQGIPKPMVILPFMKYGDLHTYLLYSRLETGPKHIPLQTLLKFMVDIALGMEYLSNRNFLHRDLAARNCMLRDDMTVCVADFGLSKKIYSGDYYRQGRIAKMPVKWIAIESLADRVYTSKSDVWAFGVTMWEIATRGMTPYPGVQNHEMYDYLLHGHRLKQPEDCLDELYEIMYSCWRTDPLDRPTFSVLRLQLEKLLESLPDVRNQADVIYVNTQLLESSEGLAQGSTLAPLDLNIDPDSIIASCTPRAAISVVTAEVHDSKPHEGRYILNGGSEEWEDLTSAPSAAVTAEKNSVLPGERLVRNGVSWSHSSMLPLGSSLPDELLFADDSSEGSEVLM
Protocol: as §1

B1: MTK-29 (antibody, human IgG1, V domains shown)
VH: QIQLVQSGPELKKPGETVKISCKSSGFTFTTYGMSWVKQAPGKGLKWMGWINTYSGVPTYTDDFKGRFAFSLETSASTASLQINNLKNEDTATYFCARYTNYGYFDYWGQGTTLTVSS
VL: QIVLSQSPAILSASPGEKVTMTCRATSSVGYMHWYQQKPGSSPKPWIYATSNLASGVPARFSGSGSGTSYSLTISRVEAEHAATYYCQQWGSNPFTFGSGTKLEIK
- Kd [1]: 5.22 nM

B3: MTK-06 (antibody, human IgG1, V domains shown)
VH: QIQLVQSGPELKKPGETVKISCKASGYTFTNYGMNWVKQAPGKGLKWMGWINTNTGEPTYAEEFKGRFAFSLETSASTAYLQINNLKNEDTATYFCARYYNYWYFDVWGAGTTVTVSS
VL: B1 VL with T26S, G30S, H81D, G91S, N93K, F95P, S99G
- EC50 (read off the curve) [2]: ~0.2 nM

B4: MTK-13 (antibody, human IgG1, V domains shown)
VH: DVQLQESGPGLVKPSQSLSLTCSVTGYSITSGYYWNWIRQFPGNKLEWMGNIDYDGSNKYNPSLKNRISITRDTSKNHFFLKLNSVTPEDTATYFCARDGGNYRSFAYWGQGTLVTVSA
VL: QIVLTQSPPIMSASPGEKVTITCSASSSVSYMYWFQQKPGTSPKLWIYSTFNLASGVPARFSGSGSGTSYSLTISRMEAEDVATYYCQQRSSYPFTFGSGTKLEIK
- EC50 (read off the curve) [2]: ~0.6 nM

B6: MTK-31 (antibody, human IgG1, V domains shown)
VH: QIQLVQSGPELKKSGETVKISCKASGYTFTSYGMSWVKQAPGKGLKWMGWINTYSGVPTYADDFKGRFAFSLETSASTAYLQINNLKNEDTATYFCASLSYDGSLYHAMDYWGQGTSVTVSS
VL: DVSMTQTPLSLPVSLGDQASISSRSSQTIVHSNGNTYLEWYLQKPGQSPKLLIYKVSNRFSGVPDRFSGSGSGTDFTLKISRVEAEDLGVYYCFQGSHVPWTFGGGTKLEIK
- Kd [1]: 2.91 nM

B7: MTK-16 (antibody, human IgG1, V domains shown)
VH: LIQLVQSGPELKKPGETVKISCKASGYTFTNHGMNWVKQDPGKGLKWMGWINTYTGEPTYADDFKGRFVFSMETSASAAFLQINNLKNEDTATYFCARKGVTAARYFDYWGQGTTLTVSS
VL: DIVMTQSPKFMSTSVGDRVSITCKASQNVRTAVAWYKKKPGQSPKALINLASNRHTGVPDRFTGSGSGTDFTLTISNVQSEDLADYFCLQHWNYPLTFGGGTKLEIK
- EC50 (read off the curve) [2]: ~2 nM

B8: MTK-24 (antibody, human IgG1, V domains shown)
VH: QVQLQQPGAELVKPGASVKLSCKASGYTFTSYWMHWVKQRPGQGLEWIGMIHPNINTNYNEKFKSKATLTVDISSSTAYMQLSSLTSEDSAVYYCAKRSPYSNYDWYFDVWGTGTTVTVSS
VL: DIQMTQSPASLSVSVGETVTITCRASENIYSNLAWYQQKQGKSPQLLVYAATNLADGVPSRFSGSGSGTQYSLKINSLQSEDFGSYYCQHFWGTPLTFGAGTKLELK
- Kd [1]: 0.22 nM

Next, values leading:

- EC50 (read off the curve) [2]: ~0.2 nM
B2: MTK-15 (antibody, human IgG1, V domains shown)
VH: QIQLVQSGPELKKPGETVKISCKASGYTFTNYGVHWVKQAPGKGLKWMGWINTYTGEPTYADDFKGRFAFSLETSASTAYLQINNLKNEDMATYFCARGNRYAYMDYWGQGTSVTVSS
VL: B1 VL with T26S, G30S, P39S, H81D, G91S, F95R, S99G

- Kd [1]: 0.24 nM
B5: MTK-30 (antibody, human IgG1, V domains shown)
VH: QVQLQQPGTELVRPGASVKLSCKASGYTFTSYWMHWVKQRPGQGLEWIGNLNPNNGGTYYNEKFKSKATLTVDKSSSTAYMQLSSLTSEDSAVYYCARQILLYFDYWGQGTTLTVSS
VL: B6 VL with S3L, S23C, T28S, N35D

- Kd [1]: 0.53 nM
B9: MTK-33 (antibody, human IgG1, V domains shown)
VH: QVQLQQPGPELVRPGTSVKLSCKASGYTFTSYWMHWIKQRPGQGLEWIGVIDPSDNYINYNQKFKGKATLTVDTSSSTAYLQLSSLTSEDSAVYYCAREAGTRGYFDYWGQGTTLTVSS
VL: SIVMTQTPKFLLVSAGDRVIITCKASQSVSNTVAWYQQKPGQSPKLLIYYASNRYTGVPDRFTGSGYGTDFTFTISTVQAEDLAVYFCQQDYRSPFTFGSGTQLEMK

- EC50 (read off the curve) [2]: ~0.3 nM
B10: MTK-10 (antibody, human IgG1, V domains shown)
VH: QVTLKESGPGILQPSQTLSLTCSFSGFSLTTSGMGVGWIRQPSGKGLEWLAHIWSDDDKRSNPALKSRLTISQDSSTNQVFLKIASVDTADSATYYCSHLTPVREFAYWGPGTLVTVSE
VL: DIQMTQTTSSLSASLGDRVTISCSASQGISNYLNWFQQKPDGTVKLLIYYTSRLHSGVPSRFSGSGSGTDFSLTISNLEPEDIATYYCQQYTKLPYTFGGGTKLEIK
